Patent US20250213702A1

Target: IL-2Rαβγ on mouse CTLL-2 cells (mouse) (UniProt P01590)
Test: cell-based or functional assay

UniProt P01590, sequence (P01590 22-268, chain 1 of 3): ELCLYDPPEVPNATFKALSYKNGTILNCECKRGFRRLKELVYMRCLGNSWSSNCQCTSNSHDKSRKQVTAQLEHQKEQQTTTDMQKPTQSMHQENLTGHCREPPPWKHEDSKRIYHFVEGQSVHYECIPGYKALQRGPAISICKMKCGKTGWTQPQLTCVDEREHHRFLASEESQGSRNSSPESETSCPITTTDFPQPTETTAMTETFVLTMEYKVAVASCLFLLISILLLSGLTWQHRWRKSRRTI
UniProt P01590, sequence (P16297 27-539, chain 2 of 3, further chain): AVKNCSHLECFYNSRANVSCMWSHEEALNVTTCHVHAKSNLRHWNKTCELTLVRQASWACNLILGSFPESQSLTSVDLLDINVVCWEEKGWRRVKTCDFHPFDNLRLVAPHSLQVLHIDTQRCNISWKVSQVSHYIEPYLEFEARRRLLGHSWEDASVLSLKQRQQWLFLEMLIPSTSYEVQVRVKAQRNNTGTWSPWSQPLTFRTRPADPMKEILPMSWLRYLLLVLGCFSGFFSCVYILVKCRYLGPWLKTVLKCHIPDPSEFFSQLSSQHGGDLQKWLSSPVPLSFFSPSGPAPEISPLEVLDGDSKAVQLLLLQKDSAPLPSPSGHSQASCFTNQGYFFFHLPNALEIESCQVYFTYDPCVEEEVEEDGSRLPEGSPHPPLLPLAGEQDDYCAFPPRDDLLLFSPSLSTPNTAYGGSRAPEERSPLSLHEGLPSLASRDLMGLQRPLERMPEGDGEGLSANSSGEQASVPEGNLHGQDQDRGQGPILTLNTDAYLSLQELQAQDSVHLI
UniProt P01590, sequence (P34902 23-369, chain 3 of 3, further chain): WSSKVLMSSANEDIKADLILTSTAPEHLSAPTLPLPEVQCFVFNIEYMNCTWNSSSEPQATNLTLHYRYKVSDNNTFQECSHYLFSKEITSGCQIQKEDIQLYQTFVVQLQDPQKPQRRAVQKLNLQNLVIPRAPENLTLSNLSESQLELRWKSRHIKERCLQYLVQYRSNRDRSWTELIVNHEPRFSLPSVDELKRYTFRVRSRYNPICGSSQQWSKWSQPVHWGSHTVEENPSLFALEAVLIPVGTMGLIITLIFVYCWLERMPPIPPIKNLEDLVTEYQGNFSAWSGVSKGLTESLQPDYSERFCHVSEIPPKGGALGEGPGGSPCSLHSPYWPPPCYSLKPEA

EC50 (ng/mL) of STAT5 phosphorylation assay (CTLL-2 cells): 0.38 ng/mL
EC50 (ng/mL), STAT5 phosphorylation assay (CTLL-2 cells): 0.18 ng/mL
Substance: reference rhIL-2 (purchased from Beijing Solarbio Science & Technology Co., Ltd., catalog number: P00020) (from UniProt P60568 21-153) (ligand)
